From patent US20230383012A1 (Xencor, published 2023)

Experiments:
human CD28 antigen = target: T1, human CD28 antigen (human, UniProt P10747 19-152); experiment: CD28 binding affinity; Octet per paragraph 712, scFv in 1+1 Fab-scFv-Fc PDL1×CD28 bsAb
T1 construct: also called his-tagged CD28 antigen

human PDL1 = target: T2, human PDL1 (human, UniProt Q9NZQ7 19-238); experiment: PDL1 binding affinity; Biacore per paragraph 695, in PDL1×CD28 bsAb
T2 construct: his-tagged in the Carterra assay; also called PDL1 antigen

Kd (human CD28 antigen) [nM]	Kd (human PDL1) [nM]	Binder
37	–	XENP37561 (bispecific antibody) chain 1: EVQLLESGGGLVQPGGSLRLSCAASGFTFSSYDMSWVRQAPGKRLEWVSTISSGGSFTHYPDSVKGRFTISRDNSKNTLYLQMNSLRAEDTAVYYCVRRSGDWYFDVWGAGTTVTVSSASTKGPSVFPLAPSSKSTSGGTAALGCLVKDYFPEPVTVSWNSGALTSGVHTFPAVLQSSGLYSLSSVVTVPSSSLGTQTYICNVNHKPSDTKVDKKVEPKSCDKTHTCPPCPAPPVAGPSVFLFPPKPKDTLMISRTPEVTCVVVDVKHEDPEVKFNWYVDGVEVHNAKTKPREEEYNSTYRVVSVLTVLHQDWLNGKEYKCKVSNKALPAPIEKTISKAKGQPREPQVYTLPPSREEMTKNQVSLTCDVSGFYPSDIAVEWESDGQPENNYKTTPPVLDSDGSFFLYSKLTVDKSRWEQGDVFSCSVMHEALHNHYTQKSLSLSPGK chain 2: not shown chain 3: EIVLTQSPGTLSLSPGERATLSCRVSSSISSSNLHWYQQKPGQSPRPLIYGTSNLASGVPVRFSGSGSGTDYTLTISRLEPEDFAVYYCQQWSSYPLYTFGGGTKVEIKRTVAAPSVFIFPPSDEQLKSGTASVVCLLNNFYPREAKVQWKVDNALQSGNSQESVTEQDSKDSTYSLSSTLTLSKADYEKHKVYACEVTHQGLSSPVTKSFNRGEC
180	–	XENP37559 (bispecific antibody) chain 1: EVQLLESGGGLVQPGGSLRLSCAASGFTFSSYDMSWVRQAPGKRLEWVSTISSGGSFTHYPDSVKGRFTISRDNSKNTLYLQMNSLRAEDTAVYYCVRRSGDWYFDVWGAGTTVTVSSASTKGPSVFPLAPSSKSTSGGTAALGCLVKDYFPEPVTVSWNSGALTSGVHTFPAVLQSSGLYSLSSVVTVPSSSLGTQTYICNVNHKPSDTKVDKKVEPKSCDKTHTCPPCPAPPVAGPSVFLFPPKPKDTLMISRTPEVTCVVVDVKHEDPEVKFNWYVDGVEVHNAKTKPREEEYNSTYRVVSVLTVLHQDWLNGKEYKCKVSNKALPAPIEKTISKAKGQPREPQVYTLPPSREEMTKNQVSLTCDVSGFYPSDIAVEWESDGQPENNYKTTPPVLDSDGSFFLYSKLTVDKSRWEQGDVFSCSVMHEALHNHYTQKSLSLSPGK chain 2: not shown chain 3: EIVLTQSPGTLSLSPGERATLSCRVSSSISSSNLHWYQQKPGQSPRPLIYGTSNLASGVPVRFSGSGSGTDYTLTISRLEPEDFAVYYCQQWSSYPLYTFGGGTKVEIKRTVAAPSVFIFPPSDEQLKSGTASVVCLLNNFYPREAKVQWKVDNALQSGNSQESVTEQDSKDSTYSLSSTLTLSKADYEKHKVYACEVTHQGLSSPVTKSFNRGEC
240	–	XENP36233 (bispecific antibody) chain 1: EVQLLESGGGLVQPGGSLRLSCAASGFTFSSYDMSWVRQAPGKRLEWVSTISSGGSFTHYPDSVKGRFTISRDNSKNTLYLQMNSLRAEDTAVYYCVRRSGDWYFDVWGAGTTVTVSSASTKGPSVFPLAPSSKSTSGGTAALGCLVKDYFPEPVTVSWNSGALTSGVHTFPAVLQSSGLYSLSSVVTVPSSSLGTQTYICNVNHKPSDTKVDKKVEPKSCDKTHTCPPCPAPPVAGPSVFLFPPKPKDTLMISRTPEVTCVVVDVKHEDPEVKFNWYVDGVEVHNAKTKPREEEYNSTYRVVSVLTVLHQDWLNGKEYKCKVSNKALPAPIEKTISKAKGQPREPQVYTLPPSREEMTKNQVSLTCDVSGFYPSDIAVEWESDGQPENNYKTTPPVLDSDGSFFLYSKLTVDKSRWEQGDVFSCSVMHEALHNHYTQKSLSLSPGK chain 2: not shown chain 3: EIVLTQSPGTLSLSPGERATLSCRVSSSISSSNLHWYQQKPGQSPRPLIYGTSNLASGVPVRFSGSGSGTDYTLTISRLEPEDFAVYYCQQWSSYPLYTFGGGTKVEIKRTVAAPSVFIFPPSDEQLKSGTASVVCLLNNFYPREAKVQWKVDNALQSGNSQESVTEQDSKDSTYSLSSTLTLSKADYEKHKVYACEVTHQGLSSPVTKSFNRGEC
286	–	XENP37412 (bispecific antibody) chain 1: EVQLLESGGGLVQPGGSLRLSCAASGFTFSSYDMSWVRQAPGKRLEWVSTISSGGSFTHYPDSVKGRFTISRDNSKNTLYLQMNSLRAEDTAVYYCVRRSGDWYFDVWGAGTTVTVSSASTKGPSVFPLAPSSKSTSGGTAALGCLVKDYFPEPVTVSWNSGALTSGVHTFPAVLQSSGLYSLSSVVTVPSSSLGTQTYICNVNHKPSDTKVDKKVEPKSCDKTHTCPPCPAPPVAGPSVFLFPPKPKDTLMISRTPEVTCVVVDVKHEDPEVKFNWYVDGVEVHNAKTKPREEEYNSTYRVVSVLTVLHQDWLNGKEYKCKVSNKALPAPIEKTISKAKGQPREPQVYTLPPSREEMTKNQVSLTCDVSGFYPSDIAVEWESDGQPENNYKTTPPVLDSDGSFFLYSKLTVDKSRWEQGDVFSCSVMHEALHNHYTQKSLSLSPGK chain 2: not shown chain 3: EIVLTQSPGTLSLSPGERATLSCRVSSSISSSNLHWYQQKPGQSPRPLIYGTSNLASGVPVRFSGSGSGTDYTLTISRLEPEDFAVYYCQQWSSYPLYTFGGGTKVEIKRTVAAPSVFIFPPSDEQLKSGTASVVCLLNNFYPREAKVQWKVDNALQSGNSQESVTEQDSKDSTYSLSSTLTLSKADYEKHKVYACEVTHQGLSSPVTKSFNRGEC
36	–	XENP37261 (bispecific antibody) chain 1: EVQLLESGGGLVQPGGSLRLSCAASGFTFSSYDMSWVRQAPGKRLEWVSTISSGGSFTHYPDSVKGRFTISRDNSKNTLYLQMNSLRAEDTAVYYCVRRSGDWYFDVWGAGTTVTVSSASTKGPSVFPLAPSSKSTSGGTAALGCLVKDYFPEPVTVSWNSGALTSGVHTFPAVLQSSGLYSLSSVVTVPSSSLGTQTYICNVNHKPSDTKVDKKVEPKSCDKTHTCPPCPAPPVAGPSVFLFPPKPKDTLMISRTPEVTCVVVDVKHEDPEVKFNWYVDGVEVHNAKTKPREEEYNSTYRVVSVLTVLHQDWLNGKEYKCKVSNKALPAPIEKTISKAKGQPREPQVYTLPPSREEMTKNQVSLTCDVSGFYPSDIAVEWESDGQPENNYKTTPPVLDSDGSFFLYSKLTVDKSRWEQGDVFSCSVMHEALHNHYTQKSLSLSPGK chain 2: not shown chain 3: EIVLTQSPGTLSLSPGERATLSCRVSSSISSSNLHWYQQKPGQSPRPLIYGTSNLASGVPVRFSGSGSGTDYTLTISRLEPEDFAVYYCQQWSSYPLYTFGGGTKVEIKRTVAAPSVFIFPPSDEQLKSGTASVVCLLNNFYPREAKVQWKVDNALQSGNSQESVTEQDSKDSTYSLSSTLTLSKADYEKHKVYACEVTHQGLSSPVTKSFNRGEC
96	–	XENP37560 (bispecific antibody) chain 1: EVQLLESGGGLVQPGGSLRLSCAASGFTFSSYDMSWVRQAPGKRLEWVSTISSGGSFTHYPDSVKGRFTISRDNSKNTLYLQMNSLRAEDTAVYYCVRRSGDWYFDVWGAGTTVTVSSASTKGPSVFPLAPSSKSTSGGTAALGCLVKDYFPEPVTVSWNSGALTSGVHTFPAVLQSSGLYSLSSVVTVPSSSLGTQTYICNVNHKPSDTKVDKKVEPKSCDKTHTCPPCPAPPVAGPSVFLFPPKPKDTLMISRTPEVTCVVVDVKHEDPEVKFNWYVDGVEVHNAKTKPREEEYNSTYRVVSVLTVLHQDWLNGKEYKCKVSNKALPAPIEKTISKAKGQPREPQVYTLPPSREEMTKNQVSLTCDVSGFYPSDIAVEWESDGQPENNYKTTPPVLDSDGSFFLYSKLTVDKSRWEQGDVFSCSVMHEALHNHYTQKSLSLSPGK chain 2: not shown chain 3: EIVLTQSPGTLSLSPGERATLSCRVSSSISSSNLHWYQQKPGQSPRPLIYGTSNLASGVPVRFSGSGSGTDYTLTISRLEPEDFAVYYCQQWSSYPLYTFGGGTKVEIKRTVAAPSVFIFPPSDEQLKSGTASVVCLLNNFYPREAKVQWKVDNALQSGNSQESVTEQDSKDSTYSLSSTLTLSKADYEKHKVYACEVTHQGLSSPVTKSFNRGEC
–	0.17	XENP38514 (bispecific antibody, also called αPDL1×αCD28 bsAb XENP38514) heavy: EVQLLESGGGLVQPGGSLRLSCAASGFTFSVYDMSWVRQAPGKRLEWVSTISSGGSFTHYPDSVKGRFTISRDNSKNTLYLQMNSLRAEDTAVYYCVRRSLDWYFDVWGAGTTVTVSSASTKGPSVFPLAPSSKSTSGGTAALGCLVKDYFPEPVTVSWNSGALTSGVHTFPAVLQSSGLYSLSSVVTVPSSSLGTQTYICNVNHKPSDTKVDKKVEPKSCDKTHTCPPCPAPPVAGPSVFLFPPKPKDTLMISRTPEVTCVVVDVKHEDPEVKFNWYVDGVEVHNAKTKPREEEYNSTYRVVSVLTVLHQDWLNGKEYKCKVSNKALPAPIEKTISKAKGQPREPQVYTLPPSREEMTKNQVSLTCDVSGFYPSDIAVEWESDGQPENNYKTTPPVLDSDGSFFLYSKLTVDKSRWEQGDVFSCSVMHEALHNHYTQKSLSLSPGK scFv-Fc: not shown light: EIVLTQSPGTLSLSPGERATLSCRVSSSIQSTNLHWYQQKPGQSPRPLIYGTSVLATGVPVRFSGSGSGTDYTLTISRLEPEDFAVYYCQQWSSYPLYTFGGGTKVEIKRTVAAPSVFIFPPSDEQLKSGTASVVCLLNNFYPREAKVQWKVDNALQSGNSQESVTEQDSKDSTYSLSSTLTLSKADYEKHKVYACEVTHQGLSSPVTKSFNRGEC
–	0.8	PDL1 binding domain 2G4_H1.12_L1.68 (Fab, V domains shown) VH: EVQLLESGGGLVQPGGSLRLSCAASGFTFSVYDMSWVRQAPGKRLEWVSTISSGGSFTHYPDSVKGRFTISRDNSKNTLYLQMNSLRAEDTAVYYCVRRSLDWYFDVWGAGTTVTVSS VL: EIVLTQSPGTLSLSPGERATLSCRVSSSIQSTNLHWYQQKPGQSPRPLIYGTSNLASGVPVRFSGSGSGTDYTLTISRLEPEDFAVYYCQQWSSYPLYTFGGGTKVEIK
–	0.86	PDL1 binding domain 2G4_H1.12_L1.66 (Fab, V domains shown) VH: EVQLLESGGGLVQPGGSLRLSCAASGFTFSVYDMSWVRQAPGKRLEWVSTISSGGSFTHYPDSVKGRFTISRDNSKNTLYLQMNSLRAEDTAVYYCVRRSLDWYFDVWGAGTTVTVSS VL: EIVLTQSPGTLSLSPGERATLSCRVSSSIQSTNLHWYQQKPGQSPRPLIYGTSNLATGVPVRFSGSGSGTDYTLTISRLEPEDFAVYYCQQWSSYPLYTFGGGTKVEIK
–	0.42	PDL1 binding domain 2G4_H1.12_L1.14 (Fab, V domains shown, also called as in XENP40409 and XENP40706) VH: EVQLLESGGGLVQPGGSLRLSCAASGFTFSVYDMSWVRQAPGKRLEWVSTISSGGSFTHYPDSVKGRFTISRDNSKNTLYLQMNSLRAEDTAVYYCVRRSLDWYFDVWGAGTTVTVSS VL: EIVLTQSPGTLSLSPGERATLSCRVSSSIQSSNLHWYQQKPGQSPRPLIYGTSNLASGVPVRFSGSGSGTDYTLTISRLEPEDFAVYYCQQWSSYPLYTFGGGTKVEIK
